Results from PMC10415273.

T1: endogenous IRF3 (human (endogenous in HEK293)), Q14653
T1 chain: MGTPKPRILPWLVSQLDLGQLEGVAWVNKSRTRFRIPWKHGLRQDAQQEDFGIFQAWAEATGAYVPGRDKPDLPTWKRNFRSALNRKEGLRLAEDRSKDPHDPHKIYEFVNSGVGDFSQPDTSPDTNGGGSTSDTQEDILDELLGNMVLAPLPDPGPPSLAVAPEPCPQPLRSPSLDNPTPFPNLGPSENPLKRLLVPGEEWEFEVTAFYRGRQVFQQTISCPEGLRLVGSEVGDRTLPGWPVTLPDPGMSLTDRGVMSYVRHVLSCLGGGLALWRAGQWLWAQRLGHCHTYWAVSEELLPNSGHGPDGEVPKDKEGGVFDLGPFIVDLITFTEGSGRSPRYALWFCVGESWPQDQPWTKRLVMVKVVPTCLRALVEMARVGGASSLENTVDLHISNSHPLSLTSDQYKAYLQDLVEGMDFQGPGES

T2: endogenous mouse IRF3 (mouse (endogenous in peritoneal macrophages)), P70671
T2 chain: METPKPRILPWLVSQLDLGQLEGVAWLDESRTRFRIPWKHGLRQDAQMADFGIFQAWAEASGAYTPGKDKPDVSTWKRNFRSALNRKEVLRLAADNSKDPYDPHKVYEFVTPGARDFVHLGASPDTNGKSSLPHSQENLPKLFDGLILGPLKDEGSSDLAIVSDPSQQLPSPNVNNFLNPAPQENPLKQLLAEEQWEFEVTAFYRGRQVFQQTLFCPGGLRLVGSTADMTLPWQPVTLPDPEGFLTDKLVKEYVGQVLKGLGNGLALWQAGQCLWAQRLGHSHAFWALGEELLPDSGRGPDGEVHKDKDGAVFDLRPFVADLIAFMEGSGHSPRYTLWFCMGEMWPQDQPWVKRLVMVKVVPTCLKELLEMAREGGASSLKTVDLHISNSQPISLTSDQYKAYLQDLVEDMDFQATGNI


Assays:
[1] = biological target: T1, endogenous IRF3 (human (endogenous in …)); assay: native gel or EMSA; S5 fractions of stimulated cells on 9% native PAGE (0.4% Doc-Na in running buffer, 4 °C); immunoblot of IRF3; details: remark: other sources report otherwise
[2] = biological target: T2, endogenous mouse IRF3 (mouse …); assay: as above; details: remark: other sources report otherwise

stoichiometry N [1] | stoichiometry N [2] | Binder
2 | – | endogenous IRF3, Q14653 1-427 (natural protein) MGTPKPRILPWLVSQLDLGQLEGVAWVNKSRTRFRIPWKHGLRQDAQQEDFGIFQAWAEATGAYVPGRDKPDLPTWKRNFRSALNRKEGLRLAEDRSKDPHDPHKIYEFVNSGVGDFSQPDTSPDTNGGGSTSDTQEDILDELLGNMVLAPLPDPGPPSLAVAPEPCPQPLRSPSLDNPTPFPNLGPSENPLKRLLVPGEEWEFEVTAFYRGRQVFQQTISCPEGLRLVGSEVGDRTLPGWPVTLPDPGMSLTDRGVMSYVRHVLSCLGGGLALWRAGQWLWAQRLGHCHTYWAVSEELLPNSGHGPDGEVPKDKEGGVFDLGPFIVDLITFTEGSGRSPRYALWFCVGESWPQDQPWTKRLVMVKVVPTCLRALVEMARVGGASSLENTVDLHISNSHPLSLTSDQYKAYLQDLVEGMDFQGPGES
– | 2 | endogenous mouse IRF3, P70671 1-419 (natural protein) METPKPRILPWLVSQLDLGQLEGVAWLDESRTRFRIPWKHGLRQDAQMADFGIFQAWAEASGAYTPGKDKPDVSTWKRNFRSALNRKEVLRLAADNSKDPYDPHKVYEFVTPGARDFVHLGASPDTNGKSSLPHSQENLPKLFDGLILGPLKDEGSSDLAIVSDPSQQLPSPNVNNFLNPAPQENPLKQLLAEEQWEFEVTAFYRGRQVFQQTLFCPGGLRLVGSTADMTLPWQPVTLPDPEGFLTDKLVKEYVGQVLKGLGNGLALWQAGQCLWAQRLGHSHAFWALGEELLPDSGRGPDGEVHKDKDGAVFDLRPFVADLIAFMEGSGHSPRYTLWFCMGEMWPQDQPWVKRLVMVKVVPTCLKELLEMAREGGASSLKTVDLHISNSQPISLTSDQYKAYLQDLVEDMDFQATGNI
